According to the supplement of paper PMC10126150:
± gives the standard deviation of the averaged measurements.

tested on: ATP; test: switch fluorescence ratio, 500 uM ATP over buffer (Cy3 cluster intensity, sum of 5 cycles each) (fold (ratio)); higher = stronger signal-on switching upon ATP binding; sequences stand for … in TCGTCGGCAGCGTCAGATGTGTATAAGAGACAGTTTTTTTTTTTTTTTTTTTTTTTTT…TC; details: aptamer strand: ATP DNA aptamer (quencher-CACCTGGGGGAGTATTGCGGAGGAAGG + anchor), 100 nM annealed; ATP concentration: 500 uM
Outline: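 The quencher-labelled ATP aptamer, at 100 nM, was annealed to Cy3-labelled switching-strand clusters on a modified Illumina MiSeq flow-cell. The clusters were imaged in selection buffer, then after 15 min with 500 uM ATP at 22 °C, and this buffer/ATP cycle ran five times with NaOH stripping and re-annealing between runs. Per-cluster fluorescence ratios, summed target-cycle over summed buffer-cycle Cy3 intensity, were averaged per switch-domain sequence. Clusters outside 100-1000 RFU were excluded.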
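Note: ATP exposure 15 min at 22 °C before imaging.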

| Sequence | switch fluorescence ratio |
| --- | --- |
| ATCACGGGGA | 1.01 ± 0.032 |
| TGTTTGGAAG | 1.05 ± 0.056 |
| CAATAAGTTT | 1.01 ± 0.043 |
| AATCTCGGCC | 0.986 ± 0.015 |
| GGGGCACGGG | 1.02 ± 0.034 |
| AGCGTGTAGG | 1 ± 0.15 |
| CTTCTTTGGG | 1 ± 0.024 |
| AGGCAGATAG | 1.04 ± 0.025 |
| ATTATAGTGG | 1.04 ± 0.02 |
| TGCAAGGTTA | 1.02 ± 0.051 |
| ATTAAGGGTT | 1.02 ± 0.025 |
| TTGTGCGACT | 0.98 ± 0.019 |
| TTTTACTTGC | 1.0115 ± 0.00074 |
| TCGGTCGGGA | 1.022 ± 0.0017 |
| GGGCCTGGGT | 1 ± 0.017 |
| AGTTTGGCAG | 0.998 ± 0.035 |
| GCTATTTTTT | 0.987 ± 0.022 |
| AGTTCGTAGT | 1.03 ± 0.049 |
| TGGGTGGAAG | 1.042 ± 0.01 |
| AAAGTTCAGT | 0.98958 ± 0.00071 |
| TTCGTACGTA | 1 ± 0.06 |
| TTGAGCGGTC | 1.1 ± 0.022 |
| AAGTGGTACA | 0.968 ± 0.049 |
| TTTGTTGTGG | 1.01 ± 0.048 |
| TTTTGACTGC | 0.977 ± 0.05 |

| Sequence | switch fluorescence ratio |
| --- | --- |
| TTTTTAGGAC | 0.997 ± 0.014 |
| ACAAGTAATA | 1.06 ± 0.057 |
| ATTTGTCCGG | 1.007 ± 0.0081 |
| TAGAGTATCT | 0.999 ± 0.027 |
| CGCGCAGTCG | 1.032 ± 0.003 |
| TTAAGGGAGC | 1.02 ± 0.052 |
| AAATATTGTT | 0.976 ± 0.027 |
| ATTTTCGACA | 1.022 ± 0.0028 |
| GCGGCACGGC | 1.01 ± 0.03 |
| GGGGTGAAGG | 1.01 ± 0.025 |
| ATAGGGCGGC | 1.012 ± 0.0038 |
| AGGTTTAGGG | 1.03 ± 0.034 |
| ATTAGCAGCA | 1.05 ± 0.025 |
| GTGGAATGGT | 0.986 ± 0.024 |
| TACGTTCTGA | 0.999 ± 0.049 |
| AGATCGAGTA | 0.989 ± 0.033 |
| AATGTGCCCA | 0.9775 ± 0.007 |
| AACACCAGGT | 1.38 ± 0.45 |
| TTCGAGGGTA | 0.974 ± 0.036 |
| GGGGAAGCTT | 1.04 ± 0.055 |
| TATATACGTT | 1.04 ± 0.026 |
| TGGGGCTTGA | 0.9684 ± 0.005 |
| GGGTTGGTTG | 0.9929 ± 0.0052 |
| AATTGGGGTG | 1.06 ± 0.011 |
| AGCGTTCAGC | 0.9849 ± 0.0026 |

| Sequence | switch fluorescence ratio |
| --- | --- |
| GTGGAGTTGG | 1.31 ± 0.44 |
| TAATTTGGGA | 0.997 ± 0.013 |
| CGACACTATT | 1.06 ± 0.034 |
| TTTATAAGGG | 0.995 ± 0.013 |
| GCGTAGTATT | 0.9954 ± 0.0085 |
| CGGAAGATAT | 1.039 ± 0.00018 |
| TCACTGGGTC | 1.05 ± 0.023 |
| GATGGGCAGG | 1 ± 0.024 |
| CAATATATCA | 0.999 ± 0.022 |
| ATAGAGCCTA | 1.03 ± 0.02 |
| GGCCACGTAG | 1.02 ± 0.022 |
| GCTCGTTATA | 1.02 ± 0.019 |
| GGAGTCGTCC | 1.01 ± 0.024 |
| CACCGGAGGG | 1.25 ± 0.4 |
| AAGGGTTCCG | 1.01 ± 0.047 |
| ATTGGGGGT | 1.026 ± 0.0062 |
| TATGCTTGGT | 1.015 ± 0.003 |
| GTGTGCTGCA | 1.03 ± 0.092 |
| GATGGGAGTT | 1.01 ± 0.014 |
| TTGCTTTTAT | 0.991 ± 0.024 |
| TTGAGTCCTT | 1.04 ± 0.022 |
| CTGGTAAATC | 1.02 ± 0.026 |
| GGGTGTGAGA | 1.04 ± 0.03 |
| TCGTAGTCGT | 0.995 ± 0.064 |
| ATCATAATAC | 1.406 ± 0.0065 |

| Sequence | switch fluorescence ratio |
| --- | --- |
| CCTTTTAGGT | 0.9846 ± 0.0043 |
| CATTCATGAT | 0.9858 ± 0.0086 |
| GGATTATTAG | 0.965 ± 0.016 |
| CAGGTCTGTG | 1.025 ± 0.0022 |
| TTGCCGATAC | 2.16 ± 0.12 |
| TTTTGGTACT | 0.984 ± 0.027 |
| TGAGGGAAGA | 1.05 ± 0.051 |
| TCCTTTTGTT | 1.06 ± 0.15 |
| AGTTAGGGGA | 1.01 ± 0.038 |
| GAAGGGGGGA | 0.985 ± 0.034 |
| ACTTGCTTAC | 2 ± 0.022 |
| ATTAATGGGA | 0.9986 ± 0.0061 |
| TTGAAGGGGG | 0.993 ± 0.035 |
| AATTTACAGC | 1.03 ± 0.042 |
| GGGGGGTTCG | 0.978 ± 0.021 |
| GAGGGAAGAT | 0.999 ± 0.014 |
| AATAGGGAGG | 0.979 ± 0.025 |
| CTGTGGCTTT | 1.016 ± 0.0096 |
| AGACCTTTTA | 1 ± 0.063 |
| AGTTTTGTCG | 1.01 ± 0.022 |
| GATATTTGAT | 0.995 ± 0.042 |
| TCATGTCGGT | 0.979 ± 0.017 |
| GCATTTTCAG | 0.989 ± 0.021 |
| ATTTTAAAAT | 0.977 ± 0.013 |
| TTAAAAGATT | 0.99 ± 0.075 |
